From patent US20210403567A1, “METHODS OF TREATING CERVICAL CANCER BY ADMINISTERING A PD-1 INHIBITOR” (priority 2020, published 2021)
“And” between values parts separate entries of the source, which are not always exact repeats. Equal values may be shown once. Read-outs that look alike come from different tables or passages of the source.

How the values were obtained:
[1] = Phase I expansion cohorts: safety, treatment-emergent adverse events (NCI CTCAE 4.03); type: in vivo, human
Method: The combination therapy cohort enrolled patients for whom palliative hfRT was planned to a lesion that was causing some signs or symptoms. The radiated lesion was not followed as a target lesion for response assessments.
Assessments: Tumor histology was assessed per local pathology reports of tumor samples obtained at any time prior to study enrollment. […] Extensive safety evaluations were performed during screening and on Day 1 of each subsequent treatment cycle throughout the study. Routine safety evaluations were performed at each cemiplimab dosing visit. Tumor response assessments were performed by investigators, per RECIST 1.1, at the end of each 8-week treatment cycle. In combination therapy cohorts, the lesions selected for hfRT were not included in RECIST 1.1 assessments.
Statistical analysis of clinical data: The safety summaries and analyses were performed on the safety analysis set. Data were summarized using descriptive statistics, along with two-sided 95% confidence interval (CI), by dose cohort. Continuous variables were summarized with mean, median, standard deviation, minimum, and maximum. Categorical variables were summarized with frequency and percentage. Kaplan-Meier analysis was performed for progression-free survival (PFS) and OS.

[2] = system: recurrent or metastatic cervical cancer that has progressed after first-line platinum-based treatment
cervical cancer = conditions: durable responses; cited from earlier work
[3] = Grade 3-5, cemiplimab N=300, chemotherapy N=290
[4] = any grade, cemiplimab N=300, chemotherapy N=290
[5] = cemiplimab vs Gemcitabine (n = 108 vs 121)
[6] = cemiplimab vs Irinotecan (n = 26 vs 19)
[7] = cemiplimab vs Pemetrexed (n = 119 vs […])
[8] = cemiplimab vs Topotecan (n = 20 vs 21)
[9] = cemiplimab vs Vinorelbine (n = 31 vs 32)
[10] = subgroup with IC chemotherapy selected prior to randomisation: Gemcitabine (n = 108 vs 121)
[11] = subgroup with IC chemotherapy selected prior to randomisation: Irinotecan (n = 26 vs 19)

Question: With cemiplimab as the substance, how does the “Sponsor-identified immune-related AEs: Led to death” value [3] read?
Answer: The value was 0 n (%).

Question: What about the “Treatment-emergent AEs that led to death” value [3] of the same substance?
Answer: The value was 5 (1.7) n (%).

Question: What about the “Treatment-related AEs: Led to death” value [3] of the same substance?
Answer: Its value is 0 n (%).

Question: And the “Number of patients with any TEAE resulting in death” value [4]?
Answer: Its value is 5 n (%) and 5 (1.7) n (%).

Question: What about the “Sponsor-identified immune-related AEs: Led to death” value [4] of the same substance?
Answer: The value was 0 n (%).

Question: What about the “Treatment-related AEs: Led to death” value [4] of the same substance?
Answer: The value was 0 n (%).

Question: And the “AEs observed, patients” value (in vivo)?
Answer: The value was 88%.

Question: And the “Grade 3 or higher AEs, patients” value (in vivo)?
Answer: Its value is 45%.

Question: And the “Number of NCI grade 3/4/5 TEAEs” value (in vivo)?
Answer: The value was 299.

Question: What about the “Number of TEAEs” value (in vivo) of the same substance?
Answer: Its value is 1969.

Question: And the “Number of patients with any TEAE leading to a dose interruption/delay” value (in vivo)?
Answer: The value was 75 n (%).

Question: And the “Number of patients with any TEAE leading to a dose reduction” value (in vivo)?
Answer: Its value is 0 n (%).

Question: And the “Number of patients with any serious TEAE” value (in vivo)?
Answer: Its value is 89 n (%).

Question: What about the “Number of serious TEAEs” value (in vivo) of the same substance?
Answer: Its value is 147.

Question: And the “Treatment-emergent AEs that led to discontinuation” value (in vivo)?
Answer: The value was 20 (6.7) n (%).

Question: What about the “anemia, patients” value (in vivo) of the same substance?
Answer: Its value is 25%.

Question: What about the “asthenia, patients” value (in vivo) of the same substance?
Answer: Its value is 2%.

Question: What about the “constipation, patients” value (in vivo) of the same substance?
Answer: The value was 15%.

Question: And the “decreased appetite, patients” value (in vivo)?
Answer: The value was 15%.

Question: What about the “fatigue, patients” value (in vivo) of the same substance?
Answer: Its value is 17%.

Question: And the “nausea, patients” value (in vivo)?
Answer: The value was 18%.

Question: What about the “pyrexia, patients” value (in vivo) of the same substance?
Answer: The value was “less than 1%”.

Question: And the “vomiting, patients” value (in vivo)?
Answer: The value was 16%.

Question: And the “Treatment-related TEAEs (Grade 3)” value ([1]; 1/10)?
Answer: The value was 10%.

Question: And the “Treatment-related TEAE: Any” value ([1]; Grade ≥ 3, n = 10 per cohort)?
Answer: Its value is 1 n (%).

Question: And the “Treatment-related TEAE: Diarrhea” value ([1]; Grade ≥ 3, n = 10 per cohort)?
Answer: The value was 0 n (%).

Question: What about the “Treatment-related TEAE: Fatigue” value ([1]; Grade ≥ 3, n = 10 per cohort) of the same substance?
Answer: The value was 1 n (%).

Question: And the “Treatment-related TEAE: Hyponatremia” value ([1]; Grade ≥ 3, n = 10 per cohort)?
Answer: The value was 0 n (%).

Question: And the “Treatment-related TEAE: Hypothyroidism” value ([1]; Grade ≥ 3, n = 10 per cohort)?
Answer: Its value is 0 n (%).

Question: And the “Treatment-related TEAE: Myalgia” value ([1]; Grade ≥ 3, n = 10 per cohort)?
Answer: Its value is 1 n (%).

Question: And the “Treatment-related TEAE: Pneumonitis” value ([1]; Grade ≥ 3, n = 10 per cohort)?
Answer: Its value is 0 n (%).

Question: What about the “Treatment-related TEAE: Any” value ([1]; any grade, n = 10 per cohort) of the same substance?
Answer: The value was 7 n (%).

Question: And the “Treatment-related TEAE: Diarrhea” value ([1]; any grade, n = 10 per cohort)?
Answer: The value was 2 n (%).

Question: What about the “Treatment-related TEAE: Fatigue” value ([1]; any grade, n = 10 per cohort) of the same substance?
Answer: Its value is 3 n (%).

Question: What about the “Treatment-related TEAE: Hyponatremia” value ([1]; any grade, n = 10 per cohort) of the same substance?
Answer: The value was 1 n (%).

Question: What about the “Treatment-related TEAE: Hypothyroidism” value ([1]; any grade, n = 10 per cohort) of the same substance?
Answer: The value was 2 n (%).

Question: What about the “Treatment-related TEAE: Myalgia” value ([1]; any grade, n = 10 per cohort) of the same substance?
Answer: Its value is 1 n (%).

Question: What about the “Treatment-related TEAE: Pneumonitis” value ([1]; any grade, n = 10 per cohort) of the same substance?
Answer: The value was 1 n (%).

Question: And the TEAE fatigue ([1]; both cohorts combined (5/20))?
Answer: Its TEAE fatigue is 25%.

Question: And the TEAE hypokalemia ([1]; both cohorts combined (5/20))?
Answer: The TEAE hypokalemia was 25%.

Question: What about the TEAE diarrhea ([1]; both cohorts combined (7/20)) of the same substance?
Answer: Its TEAE diarrhea is 35%.

Question: And the “patients who experienced grade TEAEs” value ([1]; four patients of 10 per cohort)?
Answer: The value was 40.0%.

Question: What about the “TEAEs of any grade, regardless of treatment attribution” value ([1]; n = 10 per cohort) of the same substance?
Answer: The value was 9 patients.

Question: And the “discontinued treatment due to TEAEs” value ([1]; n = 10 per cohort)?
Answer: The value was “No patients”.

Question: And the “OS HR, cemiplimab vs individual IC chemotherapy” value [2, 5]?
Answer: The value was “HR; 0.76”.

Question: And the “PFS HR, cemiplimab vs individual IC chemotherapy” value [2, 5]?
Answer: Its value is “HR; 0.73”.

Question: And the “OS HR, cemiplimab vs individual IC chemotherapy” value [2, 6]?
Answer: Its value is “HR; 0.69”.

Question: And the “PFS HR, cemiplimab vs individual IC chemotherapy” value [2, 6]?
Answer: The value was “HR; 0.77”.

Question: What about the “OS HR, cemiplimab vs individual IC chemotherapy” value [2, 7] of the same substance?
Answer: Its value is “HR; 0.71”.

Question: What about the “PFS HR, cemiplimab vs individual IC chemotherapy” value [2, 7] of the same substance?
Answer: The value was “HR; 0.70”.

Question: What about the “OS HR, cemiplimab vs individual IC chemotherapy” value [2, 8] of the same substance?
Answer: Its value is “HR; 0.78”.

Question: And the “PFS HR, cemiplimab vs individual IC chemotherapy” value [2, 8]?
Answer: The value was “HR; 0.90”.

Question: And the “OS HR, cemiplimab vs individual IC chemotherapy” value [2, 9]?
Answer: The value was “HR; 0.77”.

Question: What about the “PFS HR, cemiplimab vs individual IC chemotherapy” value [2, 9] of the same substance?
Answer: The value was “HR; 1.21”.

Question: What about the “OS, PFS and ORR versus each IC chemotherapy treatment” value ([2]; gemcitabine, pemetrexed, vinorelbine, topotecan, irinotecan subgroups) of the same substance?
Answer: The value was “improvements with cemiplimab versus each IC chemotherapy treatment”.

Question: What about the “Median OS (95% CI)” value [2, 10] of the same substance?
Answer: Its value is 10.7 (9.2-13.3) months.

Question: And the “Median PFS (95% CI)” value [2, 10]?
Answer: Its value is 2.8 (2.6-4.3) months.

Question: What about the ORR [2, 10] of the same substance?
Answer: Its ORR is 17.6%.

Question: And the “Median OS (95% CI)” value [2, 11]?
Answer: Its value is 15.8 (11.2-NE) months.

Question: And the “Median PFS (95% CI)” value [2, 11]?
Answer: The value was 6.9 (1.9-13.8) months.

Question: And the ORR [2, 11]?
Answer: The ORR was 23.1%.

Question: What about the “responding patients in dose escalation” value (cervical cancer) of the same substance?
Answer: The value was 2/3.
